These results are taken from the DeepSol protein solubility set.

A short description of this data set: soluble on expression in E. coli; label from the status in PepcDB or PDB records.
Take “MTVDNFRLQVLANHCTAAAEAMGYTLMRTAYSTFVKETEDFSAQLMTPAGKTFASPKTFGATWYTGLDYGRVIAMFDDYREGDIYLTNDPYSGFVATHTPDMHVWKPVFRDGRLVCFVGSHIHNTDMGGAVPASLSRTLTEVHQEGLRIPPMLLARDGVIDEKVLRIMEVNVRMPEQNRGDLNAQIAALNVGERKVHEIIDRFGVDEFMQGAEAILDYAEQQTRALIREIPDGEYRFAEYADEDTVGGYPCRIQITLRVRGDELELDFTGSDPQVASSLNVPTGGDGHHSVITVGLIYVMHTLAPRNVLNAGSVRPCRAVLPEGTVVNPQAPAAVGMRSLMAAVIQACTFGVFSRAMPDRLPACPAGGSTLLNVKTATREGRQVLSSIGPCGGGAGGGPEHDGVEGCGANNAFLKNTPVEINEAEVPIEIIRYGLVPDTGGAGRQRGGNAATMEFRLLAPNGVVTARNRNRSELAAWGVMGGKAGANSRFIRNPDSDAPEELRNSDLVNCAPGDVIRLQGPAGGGYGHPYERPIEQVVED”: the “soluble on expression in E. coli” value is on record as “not soluble”. As for “MATPDLTIRGGGIFGLAVAWAAVRRGAKVRLIESARIGAGSSGGVVGALSPHVPEQWNEKKAFQFESLAMGEAWWAAVADASGLPTGYDRLGRFQPLADARAVDHARARAEEARTLWQGRFSWEVVPAGGDFMPESPTGLVIHDTLTARLNPRLAVPALVQAIRAQGGEILIGEGEEAGPVVWATGVAGLEALSQDLGKPVGNGVKGQAMVVALDARDRPQVFGPGLLIVPHADGTTAVGSTAEKDWTAPDTTDAQLDEVHARAVALCPWLEGAPVLTRWAGLRPRARSLAPMLGEWPGRPGQYVANGGFKIGFGMAPKVGEVMAALVLEGRDEIPESFRVEASLKKKGKAEELEHHHHHH”, the entry is “not soluble”; as for “MAHHHHHHMSRFPEARKQSVQVTRHCGIASQLVTEVNGRNLTHLSVLEQEMLASSNVTEHSRQMMDVVQDPKTDIDDALRMVMLYALRYEKVGGNNTAQLKEMLLKRNCPMERISLIDRLLEYGGADKRLHELFRTSTGHILKIVAKTVGQFGKDIQNVLTQHVPLMKKVINRVYNGTLSEQKYPVQEVVGSPISVSAVPTIRAKDIIIVMVGGVTYSEAMLLYQINQGQVSNNVESLMNLGKNVTRLVSGDSTAKSASGEPYTEKIEARVTLLSTSMIDSKDFIHSLPS”, “not soluble”; as for “MKHSVHFGAGNIGRGFIGEILFKNGFHIDFVDVNNQIIHALNEKGKYEIEIAQKGQSRIEVTNVAGINSKEHPEQVIEAIQKTDIITTAIGPNILPFIAELLAKGIEARRVAGNTQALDVMACENMIGGSQFLYQEVKKYLSPEGLTFADNYIGFPNAAVDRIVPAQSHEDSLFVVVEPFNEWVVETKRLKNPDLRLKDVHYEED”, “not soluble”. As for “SRSKQKSRRRCFQCQTKLELVQQELGSCRCGYVFCMLHRLPEQHDCTFDHMGRG”, the entry is “soluble”. As for “SLRLLLELKALNSIDKKQLSNYLIQGFIYNILKNTEYSWLHNWKKEKYFNFTLIPKKDIIENKRYYLIISSPDKRFIEVLHNKIKDLDIITIGLAQFQLRKTKKFDPKLRFPWVTITPIVLREGKIVILKGDKYYKVFVKRLEELKKYNLIKKKEPILEEPIEISLNQIKDGWKIIDVKDRYYDFRNKSFSAFSNWLRDLKEQSLRKYNNFCGKNFYFEEAIFEGFTFYKTVSIRIRINRGEAVYIGTLWKELNVYRKLDKEEREFYKFLYDCGLGSLNSMGFGFVNTKKNSAR”, the entry is “soluble”. Consider “MAHHHHHHMLRRVIVGGVCRRASPSIAGRMVAARYAATIPTSTVASTTMSSSPTSRDDASTRAVVSEVPNLSFLASKTVLAETVEQTIEVCEALLNEIPKVKGAKEKHDLIDSTSNVLCLLLDPCEFVRQIHPDEEYKKHAAYAFQKGYEYMSKVNSRRDLYDVIVELDSPEGRKQLDDEEIKNVVQLKRDMESNGIHLSDALREKVTEMNIEKEDLAMRFLTEQGAKNPFATLRYLLRCRYELAKLLGFESYAEQQLRGTMLGNQQSVWHFLCGIAHKYRSAAEKELNLIRQNVGEVRNRQNITDDTRARVAHSLRRDAEPAKAEEYFSVANCIRGIQCLCSEVFGLRLEEVPFEREEVFNPDAKKFYVYDENRAFLGIIVLDMYASDMKYCQAGHLTLQLGCKPHQEALARVGLKLPERQYPVVVLTCNVGALTPAQRLPNGRFDDESTLMHPSEVTTVFHEFGHAMHTIFGQTKVQNLAGTRSSIDFVETFSQLFEHFLTSHEFLRLWAHRINTREPISFDIVMKRNAAADMFKHLDMLDQVVLSAVDQTLHGPQPYTVYFPHGQNGHLGKRTLGDSSDYGRGTYNLAKILIDVCTPLSIVTPTESGVLGTLSFEHLSGYPAGYYGYLYSLSVARRIWSKKFEKDPLNRAAGKELVQEVMRHGAACNPVEVIEKYLGDNLDEIDIWA”, for which the “soluble on expression in E. coli” value is recorded as “not soluble”.
